The source of these data is article PMC4091835.

Assay [1] addresses IRSp53 BAR–SH3 double mutant P278D P281D (human). The assay is described as follows: ITC.
The target in assay [2] is IRSp53 construct BAR–SH3 (human). The assay is described as follows: ITC. In general terms: ITC needs no label: the signal is the heat of the interaction.
Assay [3] has as its target BAR–SH3 FRET reporter (IRSp53 construct BAR–SH3 S452C, labelled with fluorescein maleimide and rhodamine maleimide) (human). The assay is described as follows: other fluorescence titration.
For assay [4], the target named is Eps8–IRSp53 complex (BAR–SH3 FRET reporter saturated with Eps8) (human) (UniProt Q12929). Kind of assay: other fluorescence titration.
Assay [5] concerns the target Cdc42_(G12V)–IRSp53 complex (BAR–SH3 FRET reporter titrated first with GMP-PNP–Cdc42_(G12V)) (human) (UniProt P60953). Kind of assay: other fluorescence titration.

Chain of Human Eps8 (Q12929 whole entry): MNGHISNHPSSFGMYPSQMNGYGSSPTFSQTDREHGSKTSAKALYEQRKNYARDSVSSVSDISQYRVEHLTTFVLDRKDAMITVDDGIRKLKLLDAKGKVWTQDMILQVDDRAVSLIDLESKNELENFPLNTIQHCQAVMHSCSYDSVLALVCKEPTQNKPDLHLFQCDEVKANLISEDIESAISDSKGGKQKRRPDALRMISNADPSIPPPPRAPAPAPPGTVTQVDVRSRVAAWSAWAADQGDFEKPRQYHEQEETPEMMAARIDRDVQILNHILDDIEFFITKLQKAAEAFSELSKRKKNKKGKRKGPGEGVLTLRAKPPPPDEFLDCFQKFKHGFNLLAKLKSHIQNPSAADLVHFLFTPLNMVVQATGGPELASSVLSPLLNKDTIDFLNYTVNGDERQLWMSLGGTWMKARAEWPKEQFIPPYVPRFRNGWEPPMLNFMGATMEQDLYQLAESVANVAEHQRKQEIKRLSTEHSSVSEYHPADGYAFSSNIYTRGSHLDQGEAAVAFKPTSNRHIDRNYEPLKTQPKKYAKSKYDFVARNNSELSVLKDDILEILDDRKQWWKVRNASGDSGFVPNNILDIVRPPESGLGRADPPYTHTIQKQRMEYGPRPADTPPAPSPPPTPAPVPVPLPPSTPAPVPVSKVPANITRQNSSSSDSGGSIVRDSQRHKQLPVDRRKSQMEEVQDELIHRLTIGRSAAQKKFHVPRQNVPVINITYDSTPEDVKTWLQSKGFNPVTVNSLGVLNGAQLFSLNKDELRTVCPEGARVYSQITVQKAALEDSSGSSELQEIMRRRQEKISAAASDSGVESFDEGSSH

In general, Kd refers to the equilibrium constant for the complex coming apart. Higher therefore signals a looser complex. Turning to “Human Cdc42 residues 1–178, constitutively active mutant G12V (from UniProt P60953 1-178) (domain or fragment)”, the Kd in assay [1] was 10.7 µM; in assay [2], 4.7 µM; in assay [3], 2.4 µM; in assay [4], 10.7 µM.

Turning to “Human Eps8 (from UniProt Q12929 1-822) (natural protein)”, in assay [5], the Kd turned out to be 1.1 µM.
